By Kd is commonly meant the free concentration of one partner at which half of the binding sites on the other are occupied at equilibrium, for simple one-to-one binding. Lower therefore signals a tighter complex.

The text below walks through data of paper PMC8962251 (2022).

The target in the assay is SARS-CoV (2002) S1S2-His trimer (SARS-CoV (2002)). Nature of the assay: SPR.

B1: CVRBDL-3_3 (designed binder)
chain: HDFWWEYDKKNDTWTRRRR
Consider B1, for which the Kd is roughly 41 mM.
